First the molecules themselves.
B1: CPEB3 Ribozyme (parent)
chain: GGGGGCCACAGCAGAAGCGUUCACGUCGCGGCCCCUGUCAGAUUCUGGUGAAUCUGCGAAUUCUGCUGU

The series covers variants of B1. The series is described as follows: self-cleavage, relative activity (ratio to wild type); higher = more cleavage; co-transcriptional.
As for C12G G28C, the self-cleavage stood at 0.157.

As for C12G G28A, the self-cleavage worked out at 0.163.

For C12G G58U, the self-cleavage was determined as 0.945.

For C12G G58A, the self-cleavage was determined as 0.852.

Consider C12G G56C, for which the self-cleavage turned out to be 0.345.

On to C12G C39G, for which the self-cleavage is 0.455.

Take C12G C39U: the self-cleavage amounted to 0.533.

As to C12G G30C, the self-cleavage is 0.367.

As to C12G U26G, the self-cleavage came out at 0.729.

As for C12G U26A, the self-cleavage is 0.695.

Consider C12G U26C, for which the self-cleavage worked out at 0.74.

With C12G C63G, the self-cleavage was 0.339.

Consider C12G C63A, for which the self-cleavage turned out to be 0.218.

For the variant C12U C22G, the self-cleavage came out at 0.248.

In the case of C12U C22U, the self-cleavage turned out to be 0.16.

Turning to C12U G30A, the self-cleavage came out at 0.864.

C12U C34G: the self-cleavage is 0.734.

Consider C12U C34A, for which the self-cleavage was determined as 0.778.

Take C12U C34U: the self-cleavage amounted to 0.959.

Turning to C12G C33A, the self-cleavage came to 0.68.

For the variant C12G C33G, the self-cleavage amounted to 0.316.

As for C12U A16G, the self-cleavage worked out at 0.814.

C12U A16U: the self-cleavage came out at 0.655.

Consider C12U A16C, for which the self-cleavage turned out to be 0.134.

Consider C12G G41A, for which the self-cleavage came out at 0.353.

Regarding C12U A13G, the self-cleavage was 0.793.

With C12U A13C, the self-cleavage stood at 0.629.

For the variant C12U A13U, the self-cleavage stood at 0.583.

Regarding C12U A60G, the self-cleavage worked out at 0.716.

As to C12U A60C, the self-cleavage came to 0.299.

With C12G A52U, the self-cleavage stood at 0.852.

With C12G A52C, the self-cleavage was 0.792.

For the variant C12G A52G, the self-cleavage worked out at 0.94.

Turning to C12G C57A, the self-cleavage was 0.25.

For C12G C57U, the self-cleavage was 0.336.

As for C12G C57G, the self-cleavage came out at 0.427.

C12U A23G: the self-cleavage was 0.946.

C12U A23U: the self-cleavage is 0.963.

For C12G C66A, the self-cleavage was 0.487.

Regarding C12G C66G, the self-cleavage worked out at 0.513.

C12G C66U: the self-cleavage turned out to be 0.69.

On to C12U G19A, for which the self-cleavage worked out at 0.12.

With C12U G19C, the self-cleavage was found to be 0.154.

Turning to C12G G31A, the self-cleavage stood at 0.334.

Turning to C12G G31U, the self-cleavage stood at 0.206.

Consider C12G G31C, for which the self-cleavage worked out at 0.217.

Turning to C12G G65U, the self-cleavage turned out to be 0.952.

C12G G65A: the self-cleavage amounted to 0.932.

For the variant C12G G65C, the self-cleavage turned out to be 0.934.

As to C12U C29U, the self-cleavage came out at 0.232.

For C12U C29G, the self-cleavage was found to be 0.317.

C12G U53C: the self-cleavage amounted to 0.408.

In the case of C12G U53G, the self-cleavage came to 0.654.

Turning to C12G U53A, the self-cleavage is 0.634.

For the variant C12U C54G, the self-cleavage was 0.84.

Consider C12U C54A, for which the self-cleavage turned out to be 0.812.

As to C12U C18A, the self-cleavage was found to be 0.0961.

In the case of C12U C18U, the self-cleavage amounted to 0.6.

As for C12U C18G, the self-cleavage was found to be 0.218.

For the variant C12U G14A, the self-cleavage came out at 0.19.

Take C12G U67A: the self-cleavage was determined as 0.8.

Take C12G U67G: the self-cleavage came out at 0.797.

Consider C12G A51G, for which the self-cleavage turned out to be 0.887.

For the variant C12G A51C, the self-cleavage was found to be 0.79.

As for C12U C32A, the self-cleavage is 0.874.

In the case of C12U C32G, the self-cleavage is 0.529.

Regarding C12G C32U, the self-cleavage came out at 0.834.

As to C12G C32G, the self-cleavage amounted to 0.334.

Regarding C12G C32A, the self-cleavage was 0.224.

As to C12G G47A, the self-cleavage turned out to be 0.912.

Regarding C12G G47C, the self-cleavage turned out to be 0.888.

Consider C12G G47U, for which the self-cleavage stood at 0.965.

For C12G U55A, the self-cleavage came out at 0.403.

As to C12G U55G, the self-cleavage came to 0.284.

For C12G U55C, the self-cleavage turned out to be 0.558.

Turning to C12U A40C, the self-cleavage turned out to be 0.358.

Turning to C12U A40G, the self-cleavage stood at 0.902.

C12G C29U: the self-cleavage was found to be 0.137.

For the variant C12G C29A, the self-cleavage was 0.213.

Take C12G G25A: the self-cleavage came to 0.161.

For C12G G25U, the self-cleavage was determined as 0.101.

Take C12G C54U: the self-cleavage stood at 0.828.

Turning to C12G C54A, the self-cleavage is 0.416.

Regarding C12G G68U, the self-cleavage was 0.917.

As to C12U C66A, the self-cleavage turned out to be 0.571.

Regarding C12G U20G, the self-cleavage amounted to 0.125.

As for C12G U20A, the self-cleavage came out at 0.228.

Turning to C12U C33U, the self-cleavage came out at 0.972.

As to C12U G25U, the self-cleavage is 0.134.

As to C12U G25C, the self-cleavage came out at 0.121.

Take C12U G25A: the self-cleavage came out at 0.184.

As for C12G U36G, the self-cleavage is 0.294.

With C12G U36A, the self-cleavage is 0.228.

As for C12G A42C, the self-cleavage amounted to 0.493.

For the variant C12G A42G, the self-cleavage amounted to 0.649.

With C12G A42U, the self-cleavage is 0.61.

On to C12G U64A, for which the self-cleavage was determined as 0.508.

Turning to C12U C39U, the self-cleavage came to 0.854.

As to C12U C39G, the self-cleavage was found to be 0.928.

As to C12U C57A, the self-cleavage was determined as 0.438.

With C12U C57G, the self-cleavage is 0.31.

With C12G C27U, the self-cleavage was determined as 0.0756.

As for C12G C27A, the self-cleavage was 0.216.

Consider C12G U21A, for which the self-cleavage stood at 0.845.

For C12G U21G, the self-cleavage is 0.364.

In the case of C12U C27U, the self-cleavage amounted to 0.297.

Turning to C12U C27A, the self-cleavage was 0.419.

Turning to C12G U62G, the self-cleavage was 0.338.

With C12U A15U, the self-cleavage is 0.502.

As for C12U A15G, the self-cleavage turned out to be 0.999.

As for C12U A59G, the self-cleavage is 0.968.

Regarding C12U A59U, the self-cleavage is 0.822.

In the case of C12U A59C, the self-cleavage amounted to 0.623.

C12G C18A: the self-cleavage is 0.185.

As to C12G C18U, the self-cleavage turned out to be 0.178.

Turning to C12G C18G, the self-cleavage came out at 0.0782.

With C12G G17C, the self-cleavage came out at 0.0979.

Take C12G G17A: the self-cleavage is 0.148.

For C12G A40U, the self-cleavage came out at 0.404.

On to C12G A40G, for which the self-cleavage was 0.672.

In the case of C12G U38G, the self-cleavage was determined as 0.126.

On to C12G U38A, for which the self-cleavage is 0.739.

As to C12G G48U, the self-cleavage is 0.925.

Take C12G G48A: the self-cleavage stood at 0.953.

C12G C22U: the self-cleavage turned out to be 0.149.

C12U G28A: the self-cleavage stood at 0.17.

Regarding C12U G28U, the self-cleavage came to 0.131.

As for C12U G28C, the self-cleavage was found to be 0.175.

C12G C35U: the self-cleavage came out at 0.83.

C12U A51U: the self-cleavage stood at 0.991.

For the variant C12U A51G, the self-cleavage came out at 0.996.

With C12G G37A, the self-cleavage was determined as 0.174.

Consider C12U C45A, for which the self-cleavage is 0.97.

Take C12G U49G: the self-cleavage stood at 0.857.

C12G U61G: the self-cleavage amounted to 0.592.

Turning to C12G U61A, the self-cleavage came to 0.537.

Turning to C12U C63G, the self-cleavage amounted to 0.443.

C12G U69G: the self-cleavage turned out to be 1.04.

For C12G U69A, the self-cleavage came to 0.881.

C12U G31A: the self-cleavage came to 0.905.

For C12G C45U, the self-cleavage was 0.868.

Consider C12G C45G, for which the self-cleavage was 0.819.

In the case of C12G C45A, the self-cleavage was found to be 0.728.

In the case of C12U A52C, the self-cleavage was 0.903.

As to C12U A52G, the self-cleavage was found to be 1.01.

For C12G C34U, the self-cleavage was 0.89.

On to C12G C34A, for which the self-cleavage is 0.699.

C12U G17C: the self-cleavage is 0.138.

C12U G17U: the self-cleavage was determined as 0.321.

For C12U G17A, the self-cleavage amounted to 0.281.

In the case of C12G G50A, the self-cleavage was determined as 0.917.

On to C12G G50C, for which the self-cleavage is 0.75.

C12G G50U: the self-cleavage amounted to 0.84.

Turning to C12G A60G, the self-cleavage was 0.451.

Turning to C12G A60C, the self-cleavage worked out at 0.277.

On to C12G U44C, for which the self-cleavage is 0.488.

For the variant C12G U44G, the self-cleavage worked out at 0.868.

Turning to C12G A59G, the self-cleavage is 0.802.

For C12G A59C, the self-cleavage is 0.339.

Take C12G U43C: the self-cleavage is 0.706.

Take C12G U43A: the self-cleavage was 0.519.

For the variant C12U A42C, the self-cleavage stood at 0.885.

Take C12U A42G: the self-cleavage amounted to 0.863.

With C12U A42U, the self-cleavage worked out at 0.91.

Consider C12G U46A, for which the self-cleavage was 0.91.

Consider C12G U46C, for which the self-cleavage is 0.832.

Regarding C12G U46G, the self-cleavage was 0.862.
